Laboratory results taken from publication PMC12036983.

Molecular target: hEAAT3-X (Hg2+-crosslinked Cys-mini K269C/W441C hEAAT3g, human excitatory amino acid transporter 3) (human) (UniProt P43005)
Assay: cryo-EM structure; hEAAT3-X at ~5 mg/mL in 20 mM HEPES-Tris pH 7.4, 200 mM NaCl, 0.01% GDN with 10 mM L-Asp, D-Asp, R-2HG or L-Cys; maps refined with C3 symmetry

In the case of “hEAAT3-X (Hg2+-crosslinked Cys-mini K269C/W441C hEAAT3g, human excitatory amino acid transporter 3) (from UniProt P43005 1-524)”, the stoichiometry N is reported as 3.
